A word on the Kd: it is the free concentration of one partner at which half of the binding sites on the other are occupied at equilibrium, for simple one-to-one binding.

Positions count from the first letter of the chain named.

The results in this text go back to patent US20250145722A1, “ANTI-GAL3 ANTIBODIES AND METHODS OF USE” (TrueBinding, Inc., priority 2020, published 2025).

The target of experiment [1] is cynomolgus Gal3 (cynomolgus). Briefly: not stated (FIG. 50).
Experiment [2] has as its target human Galectin-3 (Gal3), full-length recombinant (human) (UniProt P17931). Kind of experiment: blocking ELISA, Gal3 coated, biotin-Abeta42 peptide.
For experiment [3] the target is unchanged. Briefly: blocking ELISA, Gal3 coated, biotin-APP695.
For experiment [4] the target is unchanged. Kind of experiment: blocking ELISA, Gal3 coated, biotin-α-synuclein aggregates. (In general: In an ELISA, binding on a coated surface is turned into a signal by an enzyme label.)
For experiment [5] the target is unchanged. Briefly: blocking ELISA, Gal3 coated, biotin-Tau aggregates.
The target is the same in experiment [6]. Briefly: blocking ELISA, Gal3 coated, biotin-Abeta42 oligomer.
Experiment [7] has the same target. Kind of experiment: blocking ELISA, Gal3 coated, biotin-TLR4.
Experiment [8] shares this target. Kind of experiment: blocking ELISA, Gal3 coated, PDGFR beta-Fc, antibody 20 µg/ml.
Experiment [9] shares this target. Kind of experiment: blocking ELISA, Gal3 coated, TREM2-His.
The target is the same in experiment [10]. Kind of experiment: blocking ELISA, Gal3 coated, VEGFR3-Fc, antibody 20 µg/ml.
Experiment [11] shares this target. Briefly: blocking ELISA, Gal3 coated, EGFR-Fc, antibody 20 µg/ml.
Experiment [12] has the same target. Kind of experiment: blocking ELISA, Gal3 coated, PDGFR alpha-Fc, antibody 20 µg/ml.

human Galectin-3 (Gal3), full-length recombinant (human), sequence (P17931 2-250 limits assumed): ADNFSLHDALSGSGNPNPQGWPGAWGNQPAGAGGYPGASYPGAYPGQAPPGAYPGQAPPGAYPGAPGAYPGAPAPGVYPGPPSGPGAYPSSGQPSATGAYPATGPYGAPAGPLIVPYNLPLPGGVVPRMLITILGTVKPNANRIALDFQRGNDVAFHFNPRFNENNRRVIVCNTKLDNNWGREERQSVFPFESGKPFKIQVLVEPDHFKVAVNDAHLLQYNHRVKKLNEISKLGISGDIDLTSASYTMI

B1: TB006 (antibody, V domains shown)
VH: QVQLVQSGAEVKKPGASVKVSCKASGYSFTNYYMHWVRQAPGQRLEWMGWIYPGSGNTNYNEKFQGRVTITADTSASTAYMELSSLRSEDTAVYYCSTAPGGFDVWGQGTTVTVSS
VL: DIVMTQTPLSLSVTPGQPASISCKSSKSLLHSDGITYLYWYLQKPGQSPQLLIYRMSNLASGVPDRFSGSGSGTDFTLKISRVEAEDVGVYYCAQMLEFPLTFGQGTKLEIKR
B1 returned a dissociation constant (Kd) in experiment [1] of 5.1 nM.

B2: 12G5.D7 (antibody, from a related filing, V domains shown)
VH: QVQLKQSGAELVRPGASVKLSCKASGYTFTDYYINWVKQRPGQGLEWIARIYPGTGNTDYNEKFKGRATLTAEKSSSTAYMQLSSLTSEDSAVYFCARFAYYYGSGGYFDYWGHGTTLTVSS
VL: DILMTQSPSSMSVSLGDTVSITCHASQGINSNMGWLQQKPGKSFKGLIYHATNLEDGVPSRFSGSGSGADYSLTISSLESEDFADYYCVQYAQFPPTFGSGTKLEIK
Turning to B2, the % blocking of Gal3-Abeta42 peptide binding in [2] was less than 46%. The % blocking of Gal3-APP695 binding in [3] was greater than 86%. In experiment [4], the % blocking of Gal3-α-synuclein aggregates binding is less than 50%. In addition, the % blocking of Gal3-Tau aggregates binding in [5] is less than 50%. Moreover, in experiment [6], the % blocking of Gal3-Abeta42 oligomer binding was less than 26%.

B3: TB001 (antibody, IgG4, V domains shown)
VH: QVQLVQSGSELKKPGASVKVSCKASGYTFTNYGMNWVRQAPGQGLKWMGWINTNTGEPTYVEEFTGRFVFSLETSVSTAYLQISSLKAEDTAVYFCAPYDNFFAYWGQGTTVTVSS
VL: DIVLTQSPLSLPVTPGEPASISCRSSKSLLYKDGKTYLNWFLQKPGQSPQLLIYLMSTHASGVPDRFSGSGSGTDFTLKISRVEAEDVGVYYCQQLVDYPLTFGGGTKLEIKR
As to B3, the Kd in experiment [1] came to 8.9 nM.

B4: 7D8.2D8 (antibody, mouse IgG2a, V domains shown)
VH: EVQLVESGGGLVKPGGSLKLSCAASGFTFSSYAMSWVRQTPEKRLEWVATISDGGIYTYYPDNVKGRFTISRDNAKNNLFLQMSHLKSEDTAMYYCVRDGGYWGQGTTLTVSS
VL: DVLMTQTPLSLPVSLGDQASISCRSSQSIVHSNGNTYLEWYLQKPGQSPKLLIYKVSNRFSGVPDRFSGSGSGTDFTLKISRVEAEDLGVYYCFQGSHVPLTFGAGTKLELKR
With B4, in experiment [7], the % blocking of Gal3-TLR4 binding is greater than 90%. In [8], the % blocking of Gal3-PDGFR beta binding is less than 30%. The % blocking of Gal3-APP695 binding in [3] was greater than 90%. Moreover, the % blocking of Gal3-TREM2 binding in experiment [9] is greater than 90%. Also, the % blocking of Gal3-VEGFR3 binding in [10] was less than 30%. For the same molecule, the % blocking of Gal3-EGFR binding in experiment [11] is less than 30%. Further, the % blocking of Gal3-PDGFR alpha binding in [12] was less than 30%.

B5: 15F10.2D6 (antibody, mouse IgG2a, V domains shown)
VH: B4 VH with T28A, I56V, P61T, N63H, K76E, N77D, F80Y
VL: B4 VL with S32N, A105G
Take B5: the % blocking of Gal3-TLR4 binding in [7] is greater than 90%. In addition, the % blocking of Gal3-APP695 binding in [3] is greater than 90%. For the same molecule, in [9], the % blocking of Gal3-TREM2 binding is greater than 90%. Further, the % blocking of Gal3-Tau aggregates binding in [5] is less than 50%.
